Biological target: T1, Suc-AEPF-pNA peptide substrate
T1 chain: AEPF

B1: mutant PIN1 PPIase (K77Q/K82Q) (protein)
chain: GSHMGKNGQGEPARVRCSHLLVKHSQSRRPSSWRQEQITRTQEEALELINGYIQKIKSGEEDFESLASQFSDCSSAKARGDLGAFSRGQMQKPFEDASFALRTGEMSGPVFTDSGIHIILRTE
Km: The Km for this substrate was much higher than 100 µM ([S]<<Km)
rate (rate constant k of the peptidyl-prolyl isomerase reaction): both wild type human PIN1 and mutant PIN1 PPIAse, at 0.033 nM with 100 µM Suc-AEPF-pNA, had a rate of 0.2

— US20040171019
